We go through 1 protein from ChEMBL document CHEMBL1140936, “Topological polar surface area defines substrate transport by multidrug resistance associated protein 1 (MRP1/ABCC1)” (J Med Chem, 2009).

Substrate in the data set “not read”: N[C@@H](CCC(=O)N[C@@H](CS)C(=O)NCC(=O)O)C(=O)O
The data set can be described thus: not read.

Substrate in data set [1]: N[C@@H](CCC(=O)N[C@@H](CSSC[C@H](NC(=O)CC[C@H](N)C(=O)O)C(=O)NCC(=O)O)C(=O)NCC(=O)O)C(=O)O
The data set can be described thus: Activity of MRP1.

B1: Multidrug resistance-associated protein 1 (Homo sapiens) (protein)
chain: MALRGFCSADGSDPLWDWNVTWNTSNPDFTKCFQNTVLVWVPCFYLWACFPFYFLYLSRHDRGYIQMTPLNKTKTALGFLLWIVCWADLFYSFWERSRGIFLAPVFLVSPTLLGITMLLATFLIQLERRKGVQSSGIMLTFWLVALVCALAILRSKIMTALKEDAQVDLFRDITFYVYFSLLLIQLVLSCFSDRSPLFSETIHDPNPCPESSASFLSRITFWWITGLIVRGYRQPLEGSDLWSLNKEDTSEQVVPVLVKNWKKECAKTRKQPVKVVYSSKDPAQPKESSKVDANEEVEALIVKSPQKEWNPSLFKVLYKTFGPYFLMSFFFKAIHDLMMFSGPQILKLLIKFVNDTKAPDWQGYFYTVLLFVTACLQTLVLHQYFHICFVSGMRIKTAVIGAVYRKALVITNSARKSSTVGEIVNLMSVDAQRFMDLATYINMIWSAPLQVILALYLLWLNLGPSVLAGVAVMVLMVPVNAVMAMKTKTYQVAHMKSKDNRIKLMNEILNGIKVLKLYAWELAFKDKVLAIRQEELKVLKKSAYLSAVGTFTWVCTPFLVALCTFAVYVTIDENNILDAQTAFVSLALFNILRFPLNILPMVISSIVQASVSLKRLRIFLSHEELEPDSIERRPVKDGGGTNSITVRNATFTWARSDPPTLNGITFSIPEGALVAVVGQVGCGKSSLLSALLAEMDKVEGHVAIKGSVAYVPQQAWIQNDSLRENILFGCQLEEPYYRSVIQACALLPDLEILPSGDRTEIGEKGVNLSGGQKQRVSLARAVYSNADIYLFDDPLSAVDAHVGKHIFENVIGPKGMLKNKTRILVTHSMSYLPQVDVIIVMSGGKISEMGSYQELLARDGAFAEFLRTYASTEQEQDAEENGVTGVSGPGKEAKQMENGMLVTDSAGKQLQRQLSSSSSYSGDISRHHNSTAELQKAEAKKEETWKLMEADKAQTGQVKLSVYWDYMKAIGLFISFLSIFLFMCNHVSALASNYWLSLWTDDPIVNGTQEHTKVRLSVYGALGISQGIAVFGYSMAVSIGGILASRCLHVDLLHSILRSPMSFFERTPSGNLVNRFSKELDTVDSMIPEVIKMFMGSLFNVIGACIVILLATPIAAIIIPPLGLIYFFVQRFYVASSRQLKRLESVSRSPVYSHFNETLLGVSVIRAFEEQERFIHQSDLKVDENQKAYYPSIVANRWLAVRLECVGNCIVLFAALFAVISRHSLSAGLVGLSVSYSLQVTTYLNWLVRMSSEMETNIVAVERLKEYSETEKEAPWQIQETAPPSSWPQVGRVEFRNYCLRYREDLDFVLRHINVTINGGEKVGIVGRTGAGKSSLTLGLFRINESAEGEIIIDGINIAKIGLHDLRFKITIIPQDPVLFSGSLRMNLDPFSQYSDEEVWTSLELAHLKDFVSALPDKLDHECAEGGENLSVGQRQLVCLARALLRKTKILVLDEATAAVDLETDDLIQSTIRTQFEDCTVLTIAHRLNTIMDYTRVIVLDKGEIQEYGAPSDLLQQRGLFYSMAKDAGLV
Consider B1, for which the results for the Km (in “not read”; in data set [1]) were 5000 µM and 93 µM, respectively.
